What all share (conditions): 20 nM; 72 h
Data set [1] deals with MCF10A. In words: percent viability (nuclei count relative to siNT); higher = more viable cells. As to the method: (§1)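 After 72 h, cells were fixed and stained with Hoechst and anti-fibrillarin, and nucleoli per nucleus were counted with CellProfiler. Values are plate-adjusted percent effect for the one-nucleolus and 5+ nucleoli phenotypes, normalised to siNT (0%) and to the positive controls siNOL11 or siKIF11 (100%), as the mean of biological triplicates. Percent viability is the nuclei count relative to siNT.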

Data set [2] relates to MCF10A. In words: 5+ nucleoli phenotype percent effect (relative to siNT 0% and siKIF11 100%); higher = more cells with five or more nucleoli. The procedure: as §1
For data set [3], the system named is MCF10A. As to the kind of experiment: one-nucleolus phenotype percent effect (relative to siNT 0% and siNOL11 100%); higher = more cells with one nucleolus (ribosome biogenesis inhibition). As to the method: as §1

As to “CCCAAUACACGGUCGACCUCUU [hsa-miR-323b-3p]”, the percent viability with MCF10A [1] was determined as 77.6%. Moreover, the “5+ nucleoli phenotype percent effect” value in the data set with MCF10A [2] is 68.7%. The “one-nucleolus phenotype percent effect” value in the data set with MCF10A [3] was -23.7%.
The corresponding values for “AGGUGGUCCGUGGCGCGUUCGC [hsa-miR-323a-5p]” are 19.8%, -21.1% and 36.4%.
The corresponding values for UUCCCAGCCAACGCACCA [hsa-miR-7977] are 63.8%, 20.4% and -23.2%.
Consider “AGGCCUGUGGCUCCUCCCUCAG [hsa-miR-6735-3p]”, for which the percent viability with MCF10A [1] amounted to 50.4%. Further, the “5+ nucleoli phenotype percent effect” value in the data set with MCF10A [2] stood at 15.7%. In the data set with MCF10A [3], the “one-nucleolus phenotype percent effect” value was -1.31%.
The corresponding values for “UGGCUGCUUCCCUUGGUCUCCAG [hsa-miR-6762-3p]” are 20.3%, -10.9% and 44%.
Taken in the same sequence, the figures for UGCUUAACCUUGCCCUCGAAA [hsa-miR-4804-3p] were 49.2%, -30.7% and 20.5%.
The corresponding values for ACAUACUUCUUUAUAUGCCCAU [hsa-miR-1-5p] are 47%, -8.68% and 11.9%.
With UAAAGAACUCUUAAAACCCAAU [hsa-miR-3133], the percent viability with MCF10A [1] amounted to 51.5%. Besides, the “5+ nucleoli phenotype percent effect” value in the data set on MCF10A [2] amounted to 48.7%. Also, in the data set on MCF10A [3], the “one-nucleolus phenotype percent effect” value was -22.2%.
Regarding AAUGUAGAGAUUGAUCAAAAU [hsa-miR-3668], the percent viability with MCF10A [1] turned out to be 86.3%. In addition, the “5+ nucleoli phenotype percent effect” value in the data set with MCF10A [2] amounted to 0.392%. Also, the “one-nucleolus phenotype percent effect” value in the data set on MCF10A [3] stood at 2.57%.
On to “UUGGCUGGUCUCUGCUCCGCAG [hsa-miR-6842-3p]”, for which, in the data set with MCF10A [1], the percent viability worked out at 24.9%. In addition, in the data set on MCF10A [2], the “5+ nucleoli phenotype percent effect” value is -0.515%. Also, in the data set on MCF10A [3], the “one-nucleolus phenotype percent effect” value turned out to be 19.7%.
The corresponding values for “CAGGUAGAUAUUUGAUAGGCAU [hsa-miR-3927-3p]” are 24.8%, 29.3% and -16.5%.
Taken in the same sequence, the figures for “UAAGUGCUUCCAUGUUUUGGUGA [hsa-miR-302a-3p]” were 78.9%, 72.3% and -15.9%.
The corresponding values for “CAGGAUCCACAGAGCUAGUCCA [hsa-miR-4661-3p]” are 31.4%, -16% and 7.03%.
As to UCCCCUCCACUUUCCUCCUAG [hsa-miR-6887-3p], in the data set on MCF10A [1], the percent viability was found to be 33.5%. Besides, in the data set on MCF10A [2], the “5+ nucleoli phenotype percent effect” value is -13.1%. Moreover, the “one-nucleolus phenotype percent effect” value in the data set with MCF10A [3] was -0.315%.
As to CCUCUGGGCCCUUCCUCCAG [hsa-miR-326], the percent viability with MCF10A [1] was 20.2%. The “5+ nucleoli phenotype percent effect” value in the data set on MCF10A [2] is -35.6%. Further, in the data set with MCF10A [3], the “one-nucleolus phenotype percent effect” value turned out to be 56.9%.
Consider UGAGGGUGUCAGCAGGUGACG [hsa-miR-6804-5p], for which, in the data set on MCF10A [1], the percent viability was found to be 11.7%. Also, the “5+ nucleoli phenotype percent effect” value in the data set with MCF10A [2] came out at 0.774%. Moreover, the “one-nucleolus phenotype percent effect” value with MCF10A [3] is 19.5%.
Turning to “AUCAUAGAGGAAAAUCCAUGUU [hsa-miR-376b-3p]”, the percent viability with MCF10A [1] turned out to be 144%. For the same sequence, the “5+ nucleoli phenotype percent effect” value with MCF10A [2] stood at 52.2%. Besides, in the data set with MCF10A [3], the “one-nucleolus phenotype percent effect” value is -20.4%.
The corresponding values for UGGCGAUUUUGGAACUCAAUGGCA [hsa-miR-8053] are 36.7%, 6.04% and 4.42%.
The corresponding values for “UGCCGCCCUCUCGCUGCUCUAG [hsa-miR-4632-3p]” are 64.2%, -6.54% and 7.5%.
Taken in the same sequence, the figures for “UCUCAGGAGUAAAGACAGAGUU [hsa-miR-3664-3p]” were 86.7%, 17.2% and -19.4%.
Regarding “UCACAGUGGUCUCUGGGAUUAU [hsa-miR-216a-3p]”, the percent viability in the data set with MCF10A [1] was 29.5%. Also, the “5+ nucleoli phenotype percent effect” value in the data set with MCF10A [2] was -17.5%. For the same sequence, in the data set with MCF10A [3], the “one-nucleolus phenotype percent effect” value was found to be 8.32%.
On to ACCCUCGUCAGGUCCCCGGGG [hsa-miR-4655-3p], for which, in the data set on MCF10A [1], the percent viability was determined as 56.9%. Moreover, the “5+ nucleoli phenotype percent effect” value with MCF10A [2] is 6.66%. For the same sequence, in the data set on MCF10A [3], the “one-nucleolus phenotype percent effect” value is -5.11%.
The corresponding values for “AGGCCUCUGUGACGUCACGGUGU [hsa-miR-4757-5p]” are 62.5%, 66.8% and -11.7%.
With “GAGUGGGGCUUCGACCCUAACC [hsa-miR-1296-3p]”, the percent viability in the data set on MCF10A [1] turned out to be 62.8%. The “5+ nucleoli phenotype percent effect” value in the data set on MCF10A [2] was -0.672%. The “one-nucleolus phenotype percent effect” value in the data set with MCF10A [3] came out at 8.1%.
The corresponding values for UUUAGAGACGGGGUCUUGCUCU [hsa-miR-1303] are 71.3%, 17.6% and -10.2%.
Taken in the same sequence, the figures for CAAAGACUGCAAUUACUUUUGCG [hsa-miR-548u] were 75.7%, 43.4% and -31.1%.
Taken in the same sequence, the figures for “UCUCACUGUAGCCUCGAACCCC [hsa-miR-1304-3p]” were 44.7%, 22.9% and -27.3%.
Consider GUGAGUCAGGGUGGGGCUGG [hsa-miR-937-5p], for which the percent viability in the data set with MCF10A [1] stood at 41.5%. In addition, in the data set with MCF10A [2], the “5+ nucleoli phenotype percent effect” value was -10.1%. In addition, the “one-nucleolus phenotype percent effect” value with MCF10A [3] was found to be 19.2%.
Taken in the same sequence, the figures for ACAGUAGAGGGAGGAAUCGCAG [hsa-miR-936] were 61.7%, 14.1% and -2.74%.
Taken in the same sequence, the figures for GUGGAAAGCAUGCAUCCAGGGUGU [hsa-miR-3978] were 61.1%, -30.5% and 15%.
Turning to “AUAUACAGGGGGAGACUCUCAU [hsa-miR-1185-2-3p]”, the percent viability in the data set with MCF10A [1] amounted to 25.8%. The “5+ nucleoli phenotype percent effect” value in the data set on MCF10A [2] is -11.3%. In addition, in the data set with MCF10A [3], the “one-nucleolus phenotype percent effect” value was 21.3%.
Taken in the same sequence, the figures for “UUAACUCCUUUCACACCCAUGG [hsa-miR-4764-3p]” were 91.4%, 15.3% and -18%.
The corresponding values for UGUGCUUGCUCGUCCCGCCCGCA [hsa-miR-636] are 111%, -6.7% and 5.25%.
The corresponding values for AUCCUUGCUAUCUGGGUGCUA [hsa-miR-502-5p] are 40.4%, -11.6% and 8.98%.
With UGGAGAGAAAGGCAGUA [hsa-miR-4306], the percent viability with MCF10A [1] is 13.5%. Moreover, in the data set with MCF10A [2], the “5+ nucleoli phenotype percent effect” value is 31.6%. Further, in the data set on MCF10A [3], the “one-nucleolus phenotype percent effect” value is -8.22%.
The corresponding values for “CGCAGGGCCCUGGCGCAGGCAU [hsa-miR-6836-5p]” are 37.7%, -6.59% and 28.5%.
Taken in the same sequence, the figures for “AGGCAGUGUAUUGUUAGCUGGC [hsa-miR-449b-5p]” were 128%, 36.8% and -25.7%.
Taken in the same sequence, the figures for UCAGUGUCUGGAUUUCCUAG [hsa-miR-6733-3p] were 70.7%, -16.2% and -2.06%.
On to AAGGCCUUUCUGAACCUUCAGA [hsa-miR-3142], for which the percent viability in the data set on MCF10A [1] came out at 23.2%. For the same sequence, the “5+ nucleoli phenotype percent effect” value in the data set with MCF10A [2] was -15%. Moreover, the “one-nucleolus phenotype percent effect” value with MCF10A [3] stood at 19.5%.
Regarding “AUGCAGGCCUGUGUACAGCACU [hsa-miR-6811-5p]”, the percent viability in the data set with MCF10A [1] came to 19.1%. For the same sequence, the “5+ nucleoli phenotype percent effect” value in the data set on MCF10A [2] was -31.3%. The “one-nucleolus phenotype percent effect” value in the data set with MCF10A [3] was 57%.
The corresponding values for “CUGCAGAGUUUGUACGGACCGG [hsa-miR-3678-3p]” are 66.6%, -37.4% and 10.8%.
For CAGGAUGUGGUCAAGUGUUGUU [hsa-miR-1265], the percent viability with MCF10A [1] came to 123%. For the same sequence, in the data set with MCF10A [2], the “5+ nucleoli phenotype percent effect” value came out at 67.6%. The “one-nucleolus phenotype percent effect” value with MCF10A [3] was -25.1%.
Consider UCCACUCUCCUGGCCCCCAG [hsa-miR-6777-3p], for which the percent viability in the data set on MCF10A [1] amounted to 51%. The “5+ nucleoli phenotype percent effect” value in the data set on MCF10A [2] came to 14.3%. Also, in the data set with MCF10A [3], the “one-nucleolus phenotype percent effect” value was -16.2%.
Consider ACCAGGCAAGAAAUAUUGU [hsa-miR-4645-5p], for which the percent viability with MCF10A [1] is 87.5%. For the same sequence, in the data set on MCF10A [2], the “5+ nucleoli phenotype percent effect” value is 5.96%. Further, in the data set with MCF10A [3], the “one-nucleolus phenotype percent effect” value was -4.87%.
Taken in the same sequence, the figures for UUUUGCACCUUUUGGAGUGAA [hsa-miR-507] were 42.2%, -28% and 25.1%.
As for AGGCAGCGGGGUGUAGUGGAUA [hsa-miR-885-3p], in the data set with MCF10A [1], the percent viability was determined as 19.2%. Besides, the “5+ nucleoli phenotype percent effect” value in the data set with MCF10A [2] is -36.7%. For the same sequence, the “one-nucleolus phenotype percent effect” value in the data set on MCF10A [3] amounted to 61.2%.
The corresponding values for CUAAUAGUAUCUACCACAAUAAA [hsa-miR-633] are 107%, 35.1% and -23.4%.
As to “UUUGGCAAUGGUAGAACUCACACU [hsa-miR-182-5p]”, the percent viability with MCF10A [1] stood at 22.8%. Moreover, in the data set on MCF10A [2], the “5+ nucleoli phenotype percent effect” value worked out at 13.1%. Besides, in the data set on MCF10A [3], the “one-nucleolus phenotype percent effect” value was found to be 25%.

Values taken from the supplement of paper PMC10899765.
